Assay results taken from patent US20200283478A1 (Genentech, published 2020).
Where “and” joins values, the source holds several entries; their conditions need not be identical. Equal entries are not always repeated. Numbered stars: 1 amine (or outer) side, 2 acyl side, 3 side chain; on linkers, the order of the positions; unused ones are H or OH. Bridge positions count the residues as written; N and C are the ends. Square brackets hold non-standard residues; d marks the D form. NH(CH2)9CO = O=C(CCCCCCCCCN[*:1])[*:2]; NH(CH2)8CO = O=C(CCCCCCCCN[*:1])[*:2]; Cit = NC(=O)NCCC[C@H](N)C(=O)O; Aun = NCCCCCCCCCCC(=O)O; Aoc = NCCCCCCCC(=O)O; Ava = NCCCCC(=O)O

B1: Compound 84 (Ac-CRLPWNLQR-(Ade)-C-NH2) (peptide)
peptide: Ac-CRLPWNLQR[NH(CH2)9CO]C-NH2
modifications: disulfide 1-11
SMILES: CC(=O)N[C@H]1CSSC[C@@H](C(N)=O)NC(=O)CCCCCCCCCNC(=O)[C@H](CCCNC(=N)N)NC(=O)[C@H](CCC(N)=O)NC(=O)[C@H](CC(C)C)NC(=O)[C@H](CC(N)=O)NC(=O)[C@H](Cc2c[nH]c3ccccc23)NC(=O)[C@@H]2CCCN2C(=O)[C@H](CC(C)C)NC(=O)[C@H](CCCNC(=N)N)NC1=O
B2: Compound 83 (Ac-CRLPWNLQR-(Aun)-C-NH2) (peptide)
peptide: Ac-CRLPWNLQR[Aun]C-NH2
modifications: disulfide 1-11
SMILES: CC(=O)N[C@H]1CSSC[C@@H](C(N)=O)NC(=O)CCCCCCCCCCNC(=O)[C@H](CCCNC(=N)N)NC(=O)[C@H](CCC(N)=O)NC(=O)[C@H](CC(C)C)NC(=O)[C@H](CC(N)=O)NC(=O)[C@H](Cc2c[nH]c3ccccc23)NC(=O)[C@@H]2CCCN2C(=O)[C@H](CC(C)C)NC(=O)[C@H](CCCNC(=N)N)NC1=O
B3: Compound 64 (Ac-DCLWNLKRIGSQCEY-NH2) (peptide)
peptide: Ac-DCLWNLKRIGSQCEY-NH2
modifications: disulfide 2-13
SMILES: CC[C@H](C)[C@@H]1NC(=O)[C@H](CCCNC(=N)N)NC(=O)[C@H](CCCCN)NC(=O)[C@H](CC(C)C)NC(=O)[C@H](CC(N)=O)NC(=O)[C@H](Cc2c[nH]c3ccccc23)NC(=O)[C@H](CC(C)C)NC(=O)[C@@H](NC(=O)[C@H](CC(=O)O)NC(C)=O)CSSC[C@@H](C(=O)N[C@@H](CCC(=O)O)C(=O)N[C@@H](Cc2ccc(O)cc2)C(N)=O)NC(=O)[C@H](CCC(N)=O)NC(=O)[C@H](CO)NC(=O)CNC1=O
B4: Compound 29 (Ac-SG-CFIPWNLQRIGLLC-NH2) (peptide)
peptide: Ac-SGCFIPWNLQRIGLLC-NH2
modifications: disulfide 3-16
SMILES: CC[C@H](C)[C@@H]1NC(=O)[C@H](CCCNC(=N)N)NC(=O)[C@H](CCC(N)=O)NC(=O)[C@H](CC(C)C)NC(=O)[C@H](CC(N)=O)NC(=O)[C@H](Cc2c[nH]c3ccccc23)NC(=O)[C@@H]2CCCN2C(=O)[C@H]([C@@H](C)CC)NC(=O)[C@H](Cc2ccccc2)NC(=O)[C@@H](NC(=O)CNC(=O)[C@H](CO)NC(C)=O)CSSC[C@@H](C(N)=O)NC(=O)[C@H](CC(C)C)NC(=O)[C@H](CC(C)C)NC(=O)CNC1=O
B5: Compound 85 (Ac-CRLPWNLQR-(Ano)-C-NH2) (peptide)
peptide: Ac-CRLPWNLQR[NH(CH2)8CO]C-NH2
modifications: disulfide 1-11
SMILES: CC(=O)N[C@H]1CSSC[C@@H](C(N)=O)NC(=O)CCCCCCCCNC(=O)[C@H](CCCNC(=N)N)NC(=O)[C@H](CCC(N)=O)NC(=O)[C@H](CC(C)C)NC(=O)[C@H](CC(N)=O)NC(=O)[C@H](Cc2c[nH]c3ccccc23)NC(=O)[C@@H]2CCCN2C(=O)[C@H](CC(C)C)NC(=O)[C@H](CCCNC(=N)N)NC1=O
B6: Compound 22 (Ac-GSG-CWNLKRIGSQGC-NH2) (peptide)
peptide: Ac-GSGCWNLKRIGSQGC-NH2
modifications: disulfide 4-15
SMILES: CC[C@H](C)[C@@H]1NC(=O)[C@H](CCCNC(=N)N)NC(=O)[C@H](CCCCN)NC(=O)[C@H](CC(C)C)NC(=O)[C@H](CC(N)=O)NC(=O)[C@H](Cc2c[nH]c3ccccc23)NC(=O)[C@@H](NC(=O)CNC(=O)[C@H](CO)NC(=O)CNC(C)=O)CSSC[C@@H](C(N)=O)NC(=O)CNC(=O)[C@H](CCC(N)=O)NC(=O)[C@H](CO)NC(=O)CNC1=O
B7: Compound 115 (Ac-CRLPWNLQRI-(Ape)-C-NH2) (peptide)
peptide: Ac-CRLPWNLQRI[Ava]C-NH2
modifications: disulfide 1-12
SMILES: CC[C@H](C)[C@@H]1NC(=O)[C@H](CCCNC(=N)N)NC(=O)[C@H](CCC(N)=O)NC(=O)[C@H](CC(C)C)NC(=O)[C@H](CC(N)=O)NC(=O)[C@H](Cc2c[nH]c3ccccc23)NC(=O)[C@@H]2CCCN2C(=O)[C@H](CC(C)C)NC(=O)[C@H](CCCNC(=N)N)NC(=O)[C@@H](NC(C)=O)CSSC[C@@H](C(N)=O)NC(=O)CCCCNC1=O
B8: Compound 32 (Ac-CRLPWNLQRIGLPC-NH2) (peptide)
peptide: Ac-CRLPWNLQRIGLPC-NH2
modifications: disulfide 1-14
SMILES: CC[C@H](C)[C@@H]1NC(=O)[C@H](CCCNC(=N)N)NC(=O)[C@H](CCC(N)=O)NC(=O)[C@H](CC(C)C)NC(=O)[C@H](CC(N)=O)NC(=O)[C@H](Cc2c[nH]c3ccccc23)NC(=O)[C@@H]2CCCN2C(=O)[C@H](CC(C)C)NC(=O)[C@H](CCCNC(=N)N)NC(=O)[C@@H](NC(C)=O)CSSC[C@@H](C(N)=O)NC(=O)[C@@H]2CCCN2C(=O)[C@H](CC(C)C)NC(=O)CNC1=O
B9: Compound 86 (Ac-CRLPWNLQR-(Aoc)-C-NH2) (peptide)
peptide: Ac-CRLPWNLQR[Aoc]C-NH2
modifications: disulfide 1-11
SMILES: CC(=O)N[C@H]1CSSC[C@@H](C(N)=O)NC(=O)CCCCCCCNC(=O)[C@H](CCCNC(=N)N)NC(=O)[C@H](CCC(N)=O)NC(=O)[C@H](CC(C)C)NC(=O)[C@H](CC(N)=O)NC(=O)[C@H](Cc2c[nH]c3ccccc23)NC(=O)[C@@H]2CCCN2C(=O)[C@H](CC(C)C)NC(=O)[C@H](CCCNC(=N)N)NC1=O
B10: Compound 36 (Ac-SG-CFIPWNLQ(Cit)IGLPC-NH2) (peptide)
peptide: Ac-SGCFIPWNLQ[Cit]IGLPC-NH2
modifications: disulfide 3-16
SMILES: CC[C@H](C)[C@@H]1NC(=O)[C@H](CCCNC(N)=O)NC(=O)[C@H](CCC(N)=O)NC(=O)[C@H](CC(C)C)NC(=O)[C@H](CC(N)=O)NC(=O)[C@H](Cc2c[nH]c3ccccc23)NC(=O)[C@@H]2CCCN2C(=O)[C@H]([C@@H](C)CC)NC(=O)[C@H](Cc2ccccc2)NC(=O)[C@@H](NC(=O)CNC(=O)[C@H](CO)NC(C)=O)CSSC[C@@H](C(N)=O)NC(=O)[C@@H]2CCCN2C(=O)[C@H](CC(C)C)NC(=O)CNC1=O
B11: Compound 31 (Ac-CFIPWNLQRIGLLC-NH2) (peptide)
peptide: Ac-CFIPWNLQRIGLLC-NH2
modifications: disulfide 1-14
SMILES: CC[C@H](C)[C@@H]1NC(=O)[C@H](CCCNC(=N)N)NC(=O)[C@H](CCC(N)=O)NC(=O)[C@H](CC(C)C)NC(=O)[C@H](CC(N)=O)NC(=O)[C@H](Cc2c[nH]c3ccccc23)NC(=O)[C@@H]2CCCN2C(=O)[C@H]([C@@H](C)CC)NC(=O)[C@H](Cc2ccccc2)NC(=O)[C@@H](NC(C)=O)CSSC[C@@H](C(N)=O)NC(=O)[C@H](CC(C)C)NC(=O)[C@H](CC(C)C)NC(=O)CNC1=O
B12: Compound 21 (Ac-CWNLKRIGSQGC-NH2) (peptide)
peptide: Ac-CWNLKRIGSQGC-NH2
modifications: disulfide 1-12
SMILES: CC[C@H](C)[C@@H]1NC(=O)[C@H](CCCNC(=N)N)NC(=O)[C@H](CCCCN)NC(=O)[C@H](CC(C)C)NC(=O)[C@H](CC(N)=O)NC(=O)[C@H](Cc2c[nH]c3ccccc23)NC(=O)[C@@H](NC(C)=O)CSSC[C@@H](C(N)=O)NC(=O)CNC(=O)[C@H](CCC(N)=O)NC(=O)[C@H](CO)NC(=O)CNC1=O

Target: T1, His-tagged, full-length PCSK9 (human, UniProt Q8NBP7 31-692)
T1 construct: secreted PCSK9 is autocatalytically cleaved into prodomain and catalytic domain + CRD (from S153), which stay associated; also called His-PCSK9; proprotein convertase subtilisin/kexin type 9; not shown: His tag
Test: TR-FRET competition (PCSK9/EGF(A) assay); competitor EGF(A)-Fc;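 also: proximity signal from anti-His APC on PCSK9 paired with anti-Fc europium on the Fc ligand, read as normalized TR-FRET ratio across compound dilutions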

T1 sequence (Q8NBP7 31-692 limits assumed): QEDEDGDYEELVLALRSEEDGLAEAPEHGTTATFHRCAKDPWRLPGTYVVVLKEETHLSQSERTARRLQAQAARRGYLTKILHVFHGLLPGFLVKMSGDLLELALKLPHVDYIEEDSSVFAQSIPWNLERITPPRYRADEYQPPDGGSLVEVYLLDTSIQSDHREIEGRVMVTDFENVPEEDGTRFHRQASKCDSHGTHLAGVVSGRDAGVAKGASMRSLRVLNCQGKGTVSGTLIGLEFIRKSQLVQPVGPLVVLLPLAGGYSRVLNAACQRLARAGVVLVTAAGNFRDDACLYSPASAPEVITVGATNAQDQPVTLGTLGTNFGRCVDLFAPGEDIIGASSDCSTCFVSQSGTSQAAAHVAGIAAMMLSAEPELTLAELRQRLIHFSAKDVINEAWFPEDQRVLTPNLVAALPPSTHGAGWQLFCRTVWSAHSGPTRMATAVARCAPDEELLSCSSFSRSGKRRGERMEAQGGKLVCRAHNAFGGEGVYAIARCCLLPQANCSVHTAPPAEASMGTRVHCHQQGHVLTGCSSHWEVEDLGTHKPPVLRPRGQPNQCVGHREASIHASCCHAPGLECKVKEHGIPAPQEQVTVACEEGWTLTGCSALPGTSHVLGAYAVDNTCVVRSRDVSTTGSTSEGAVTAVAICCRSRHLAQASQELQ

Binder | IC50
B1 | > 50 µM
B2 | > 50 µM
B3 | > 50 µM
B4 | > 50 µM
B5 | > 50 µM
Ac-SGCRLPWNLQRIGLPC-NH2 (disulfide 3-16) [Compound 30 (Ac-SG-CRLPWNLQRIGLPC-NH2)] | > 50 µM
B6 | 42 µM and > 50 µM
B7 | > 50 µM
B8 | > 50 µM
B9 | > 50 µM
B10 | > 50 µM
B11 | > 50 µM
B12 | > 50 µM

Target: T2, His-tagged PCSK9Δhelix (human, UniProt Q8NBP7 31-152; Q8NBP7 168-692)
T2 construct: Human PCSK9 M1-Q692 with an engineered TEV site, cut by TEV protease; new N-terminus of the catalytic domain is S-A168; also called His-PCSK9Δhelix; not shown: His tag
Test: TR-FRET competition (PCSK9Δhelix/Ab20 assay); competitor Ab20

T2 sequence (Q8NBP7 31-152, stated change not applied, chain 1 of 2): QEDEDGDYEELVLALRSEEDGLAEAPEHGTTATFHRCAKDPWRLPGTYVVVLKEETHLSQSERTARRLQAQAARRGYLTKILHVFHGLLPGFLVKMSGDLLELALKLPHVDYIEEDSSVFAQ
T2 sequence (Q8NBP7 other isoform, or with tags, fused parts or gaps mutant, chain 2 of 2): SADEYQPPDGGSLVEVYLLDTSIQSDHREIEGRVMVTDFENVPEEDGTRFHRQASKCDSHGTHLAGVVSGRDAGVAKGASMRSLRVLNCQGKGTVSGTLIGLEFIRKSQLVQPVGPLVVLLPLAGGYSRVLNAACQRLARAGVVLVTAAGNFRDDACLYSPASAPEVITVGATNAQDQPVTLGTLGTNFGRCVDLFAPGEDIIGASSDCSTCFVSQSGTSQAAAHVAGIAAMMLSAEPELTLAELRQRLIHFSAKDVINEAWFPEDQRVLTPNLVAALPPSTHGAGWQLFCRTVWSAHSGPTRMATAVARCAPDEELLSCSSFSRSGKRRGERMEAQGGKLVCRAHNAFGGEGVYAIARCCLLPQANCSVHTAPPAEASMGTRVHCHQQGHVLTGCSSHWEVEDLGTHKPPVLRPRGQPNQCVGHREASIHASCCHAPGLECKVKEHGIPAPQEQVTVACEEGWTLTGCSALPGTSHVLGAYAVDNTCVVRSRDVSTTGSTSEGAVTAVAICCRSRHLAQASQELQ

Binder | IC50
B4 | 1.9 µM
Ac-SGCRLPWNLQRIGLPC-NH2 (disulfide 3-16) [Compound 30 (Ac-SG-CRLPWNLQRIGLPC-NH2)] | 0.95 µM
B8 | 0.97 µM
B11 | 2.4 µM
